From article PMC3637437 come the findings set out here.

Several values for one entry are separate records, joined by “and”; a condition that tells them apart may be missing. Identical values can stand only once.

Experiment in all cases: native gel or EMSA; 1 ug of each purified consensus Env gp140 on a NativePAGE native gel, silver stained
The target in test [1] is Con M Env gp140 trimer (HIV-1 group M consensus) (bacteriophage).
The target in test [2] is Consensus A Env gp140 trimer (bacteriophage).
Test [3] concerns the target Consensus B Env gp140 trimer (bacteriophage).
In test [4] the target is Consensus C Env gp140 trimer (bacteriophage).
Test [5] deals with Consensus E Env gp140 trimer (bacteriophage).

In the case of “Con M Env gp140 trimer (HIV-1 group M consensus)”, the stoichiometry N (commonly the number of molecules, sites or subunits per partner or assembly) in test [1] is 3 and 2.

As for Consensus A Env gp140 trimer, the stoichiometry N in test [2] turned out to be 3.

Substance Consensus B Env gp140 trimer displayed a stoichiometry N in test [3] of 3.

For the substance Consensus C Env gp140 trimer, the stoichiometry N in test [4] is 3 and 2.

Take Consensus E Env gp140 trimer: the stoichiometry N in test [5] was 3 and 2.
